PMC3983030, “Ras GTPase-Like Protein MglA, a Controller of Bacterial Social-Motility in Myxobacteria, Has Evolved to Control Bacterial Predation by Bdellovibrio” (PLoS Genetics, 2014)

Biological target: T1, His6-tagged Bd2492 (Bd2492-His6) expressed in E. coli from plasmid pD2492N/3734 (Bdellovibrio bacteriovorus HD100, UniProt Q6MKB3 1-353)
T1 construct: Bd2492, 353 amino acid TPR protein of Bdellovibrio bacteriovorus HD100; The label Bd2492-His6 hints at a C-terminal tag and the plasmid name pD2492N at an N-terminal one; also called TPRBd; source: E. coli, heterologously co-expressed with MglA from plasmid pD2492N/3734
T1 sequence (looked up): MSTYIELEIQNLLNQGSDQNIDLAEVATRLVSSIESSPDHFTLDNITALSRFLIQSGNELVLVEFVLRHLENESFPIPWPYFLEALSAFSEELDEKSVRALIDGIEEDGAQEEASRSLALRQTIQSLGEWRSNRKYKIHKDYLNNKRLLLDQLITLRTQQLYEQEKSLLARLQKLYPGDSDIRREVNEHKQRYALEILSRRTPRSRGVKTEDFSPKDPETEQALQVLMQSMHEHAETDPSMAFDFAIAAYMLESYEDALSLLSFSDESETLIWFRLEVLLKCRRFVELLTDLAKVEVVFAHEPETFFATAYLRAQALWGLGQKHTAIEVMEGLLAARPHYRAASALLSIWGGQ
Test: SEC; gel filtration and SDS-PAGE of purified MglA and Bd2492-His6; data not shown
Conditions: both partners purified

stoichiometry N: 1
B1: MglA (Bd3734) co-expressed in E. coli from plasmid pD2492N/3734 (natural protein, Bdellovibrio bacteriovorus HD100, UniProt Q6MH29 1-197, looked up)
chain: MSFINYNAKEIHCKVVYYGPSLGGKTTNIQWVYQKTAEDQKSKLVALNTDIERTLFFDFLPLNVGDIRGFKTRFHLYTVPGQVVYDASRKLILKGLDGVIFVADSQIERMDENLESLRNLERNLEQQGYDIREIPLIMQYNKRDLPNVASLAELRSALNPYNAPEIEGCASEGRGVFESLKTVSKSIINVLKGGTTL
notes: MglA (Bd3734) of Bdellovibrio bacteriovorus HD100; No tag is named on MglA in this construct; source: E. coli, heterologously co-expressed with Bd2492-His6 from plasmid pD2492N/3734
